{"source": "paper PMC8535469", "about": "“Insight into the Binding and Hydrolytic Preferences of hNudt16 Based on Nucleotide Diphosphate Substrates” (International Journal of Molecular Sciences, 2021)", "proteins": {"B1": {"name": "human Nudt16 protein (hNudt16), wild type (enzyme, UniProt Q96DE0 1-195, looked up)", "chain": "MAGARRLELGEALALGSGWRHACHALLYAPDPGMLFGRIPLRYAILMQMRFDGRLGFPGGFVDTQDRSLEDGLNRELREELGEAAAAFRVERTDYRSSHVGSGPRVVAHFYAKRLTLEELLAVEAGATRAKDHGLEVLGLVRVPLYTLRDGVGGLPTFLENSFIGSAREQLLEALQDLGLLQSGSISGLKIPAHH", "notes": "human Nudt16 (hNudt16), NUDIX hydrolase; also called hNudt16 WT"}}, "molecular_target": "the molecule itself", "assay": "SAXS; 2.618 mg/mL hNudt16 in 20 mM HEPES pH 7.9, 300 mM NaCl, 10% glycerol, 0.5 mM TCEP, 20 mM MgCl2; room temperature; scattering compared with crystal structures of the dimer (CRYSOL) and ab initio model (DAMMIN)"}
{"protein": "B1", "values": [{"measurement": "stoichiometry N", "value": 2}]}
